In PMC9164050, “N-Terminus-Mediated Solution Structure of Dimerization Domain of PRC1” (Current Issues in Molecular Biology, 2022):

Molecular target: the molecule itself
Assay: cross-linking; PEG5 cross-linker (0.1 M-1 M), protein at 20 nM and 50 nM, 50 mM sodium phosphate, 150 mM NaCl, pH 7.4, 25 °C, 30 min, read by SDS-PAGE

B1: PRC1 dimerization domain (PRC1-DD; aa 1-65 of Protein Regulator of Cytokinesis 1) (domain or fragment, human, UniProt O43663-1 1-65, looked up)
chain: MRRSEVLAEESIVCLQKALNHLREIWELIGIPEDQRLQRTEVVKKHIKELLDMMIAEEESLKERL
notes: Protein Regulator of Cytokinesis 1 (PRC1), human, isoform 1 (NP_003972; full length 620 residues), residues 1-65 (dimerization domain); Cloned between Nde I and Xho I of pET-21a with a C-terminal His-tag; no removal of the tag is described; For NMR the protein was 15N- or 15N/13C-labelled; isotopic heterodimers were made by mixing unlabelled and labelled protein in 8 M urea; also called …
- stoichiometry N: 2
